Test results as given in paper PMC8590968.

Assays:
[1] = biological target: Sambucus nigra lectin (Sambucus nigra); test: immunostaining of cells or tissue
[2] = biological target: Maackia amurensis lectin II (Maackia amurensis); test: immunostaining of cells or tissue

Sambucus nigra lectin (Sambucus nigra), sequence (Q41358 29-289 limits assumed, chain 1 of 2): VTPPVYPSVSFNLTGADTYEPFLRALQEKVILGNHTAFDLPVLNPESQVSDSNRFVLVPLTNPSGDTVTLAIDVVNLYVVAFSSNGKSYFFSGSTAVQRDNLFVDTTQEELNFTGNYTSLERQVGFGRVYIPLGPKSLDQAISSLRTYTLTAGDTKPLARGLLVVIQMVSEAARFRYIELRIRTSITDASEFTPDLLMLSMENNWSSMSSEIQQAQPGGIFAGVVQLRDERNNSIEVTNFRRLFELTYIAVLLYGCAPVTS
Sambucus nigra lectin (Sambucus nigra), sequence (Q41358 309-570 limits assumed, chain 2 of 2): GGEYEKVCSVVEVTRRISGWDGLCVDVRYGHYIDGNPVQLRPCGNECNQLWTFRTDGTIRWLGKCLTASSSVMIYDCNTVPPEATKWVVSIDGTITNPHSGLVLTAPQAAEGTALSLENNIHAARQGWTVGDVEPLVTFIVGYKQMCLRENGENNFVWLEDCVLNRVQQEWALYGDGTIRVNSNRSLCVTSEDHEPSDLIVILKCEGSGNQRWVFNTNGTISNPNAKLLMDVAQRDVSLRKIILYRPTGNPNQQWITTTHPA

Row | Substance | percent reduction of lectin bound to MDCK cells [1] [%] | percent reduction of lectin bound to MDCK cells [2] [%]
1 | desialylated bovine lactoferrin (natural protein) | 60 | 
2 | native bovine lactoferrin (natural protein) |  | 40
